Measured values taken from paper doi:10.1101/857136, “Structural characterization of an intermediate reveals a unified mechanism for the CLC Cl^−/H^+ transport cycle” (bioRxiv, 2019).

Biological target: the molecule itself
Experiment: crystal structure; lipidic cubic phase (monoolein with 10% cholesterol), without any antibody Fab fragment; 16 °C; 100 mM Tris pH 8.5, 100 mM sodium malonate, 30% PEG 400, 2.5% MPD; 2.6 Å

B1: CLC-ec1 QQQ mutant (E148Q/E203Q/E113Q) (natural protein)
chain: MKTDTPSLETPQAARLRRRQLIRQLLERDKTPLAILFMAAVVGTLVGLAAVAFDKGVAWLQNQRMGALVHTADNYPLLLTVAFLCSAVLAMFGYFLVRKYAPEAGGSGIPEIQGALEDQRPVRWWRVLPVKFFGGLGTLGGGMVLGRQGPTVQIGGNIGRMVLDIFRLKGDEARHTLLATGAAAGLAAAFNAPLAGILFIIEQMRPQFRYTLISIKAVFIGVIMSTIMYRIFNHEVALIDVGKLSDAPLNTLWLYLILGIIFGIFGPIFNKWVLGMQDLLHRVHGGNITKWVLMGGAIGGLCGLLGFVAPATSGGGFNLIPIATAGNFSMGMLVFIFVARVITTLLCFSSGAPGGIFAPMLALGTVLGTAFGMVAVELFPQYHLEAGTFAIAGMGALLAASIRAPLTGIILVLEMTDNYQLILPMIITGLGATLLAQFTGGKPLYSAILARTLAKQEAEQLARSK
notes: CLC-ec1, prokaryotic CLC Cl-/H+ exchange transporter, with glutamines in place of Gluex (E148), Gluin (E203) and E113; The final crystallographic model holds all residues except those of helix A (no density); PDB 1ots is the wild-type parent used as search model; also called QQQ protein
binding result: binds
